{"source": "patent US20190330277A1", "about": "(PIRBRIGHT INSTITUTE, published 2019)", "binders": {"B1": {"name": "MPE8 antibody (antibody, V domains shown)", "VH": "EVQLVESGGGLVKPGGSLRLSCAASGFTFSSYSMNWVRQAPGKGLEWVSSISASSSYSDYADSAKGRFTISRDNAKTSLFLQMNSLRAEDTAIYFCARARATGYSSITPYFDIWGQGTLVTVSS", "VL": "QSVVTQTPSVSGAPGQRVTISCTGSSSNIGAGYDVHWYQQLPGTAPKLLIYDNNNRPSGVPDRFSASKSGTSASLAITGLQAEDEADYYCQSYDRNLSGVFGTGTKVTVL", "notes": "also called mAb MPE8"}, "B2": {"name": "D25 antibody (antibody, V domains shown)", "VH": "QVQLVQSGAEVKKPGSSVMVSCQASGGPLRNYIINWLRQAPGQGPEWMGGIIPVLGTVHYAPKFQGRVTITADESTDTAYIHLISLRSEDTAMYYCATETALVVSTTYLPHYFDNWGQGTLVTVSS", "VL": "DIQMTQSPSSLSAAVGDRVTITCQASQDIVNYLNWYQQKPGKAPKLLIYVASNLETGVPSRFSGSGSGTDFSLTISSLQPEDVATYYCQQYDNLPLTFGGGTKVEIK", "notes": "also called mAb D25"}}, "key": {"[1]": {"molecular_target": "T1, RB94 dscav1T369C-T455C Long S190V", "T1 construct": "also called DS2-v18", "assay": "ELISA, variant from culture supernatant on Ni-NTA plate", "method": "(§1) Initial assessment of all constructs were performed using a 96-well microplate format for high throughput expression followed by an ELISA-based antigenic evaluation as described previously 17. […] Plasmid DNA and TrueFect-Max (United BioSystems, MD) were mixed and added to the growing cells, and the 96-well plate incubated at 37° C., 5% CO2. One day post transfection, enriched medium (high glucose DMEM plus 25% ultra-low IgG fetal bovine serum, 2× nonessential amino acids, 1× glutamine) was added to each well, and the 96-well plate was returned to the incubator for continuous culture."}, "[2]": {"molecular_target": "T2, 391-2-DS-Cav1-sc9deleteFS 100C-361C", "T2 construct": "also called DS2-v29", "assay": "ELISA, variant from culture supernatant on Ni-NTA plate", "method": "as §1"}, "[3]": {"molecular_target": "T3, 391-2-DS-Cav1_ sc9_I395C-A490C", "T3 construct": "also called DS2-v27", "assay": "ELISA, variant from culture supernatant on Ni-NTA plate", "method": "as §1"}, "[4]": {"molecular_target": "T4, 391-2-DS-Cav1_ sc9_T449C-V459C", "T4 construct": "also called DS2-v31", "assay": "ELISA, variant from culture supernatant on Ni-NTA plate", "method": "as §1"}, "[5]": {"molecular_target": "T5, RB94 hu/bov DS-CAV1 A149C-Y458C Long", "T5 construct": "also called DS2-v7", "assay": "ELISA, variant from culture supernatant on Ni-NTA plate", "method": "as §1"}, "[6]": {"molecular_target": "T6, 391-2-DS-Cav1-sc9deleteFS 99C-361C", "T6 construct": "also called DS2-v15", "assay": "ELISA, variant from culture supernatant on Ni-NTA plate", "method": "as §1"}, "[7]": {"molecular_target": "T7, RB94 sc9 DS-CAV1 A149C-Y458C L373R Long K226L", "T7 construct": "also called DS2-v24", "assay": "ELISA, variant from culture supernatant on Ni-NTA plate", "method": "as §1"}, "[8]": {"molecular_target": "T8, RB94 sc9 DS-CAV1 A149C-Y458C L373R", "T8 construct": "also called DS2-v20", "assay": "ELISA, variant from culture supernatant on Ni-NTA plate", "method": "as §1"}, "[9]": {"molecular_target": "T9, RB94 sc9 DS-CAV1 N183GC-N428C L373R Long S190V", "T9 construct": "also called DS2-v13", "assay": "ELISA, variant from culture supernatant on Ni-NTA plate", "method": "as §1"}, "[10]": {"molecular_target": "T10, 391-2-DS-Cav1_ S398C-S485C", "T10 construct": "also called DS2-v25", "assay": "ELISA, variant from culture supernatant on Ni-NTA plate", "method": "as §1"}, "[11]": {"molecular_target": "T11, KXsb2", "T11 construct": "also called sc-v56", "assay": "ELISA, variant from culture supernatant on Ni-NTA plate [continued]", "method": "as §1"}, "[12]": {"molecular_target": "T12, sc9-10_DS-CAV1_bRSV(RB94)_Fd_(hRSV-leader)_ig1", "T12 construct": "also called sc-v43", "assay": "ELISA, variant from culture supernatant on Ni-NTA plate [continued]", "method": "as §1"}, "[13]": {"molecular_target": "T13, 391-2-DS-Cav1-BZGJ9_gyc4", "T13 construct": "also called sc-v53", "assay": "ELISA, variant from culture supernatant on Ni-NTA plate [continued]", "method": "as §1"}, "[14]": {"molecular_target": "T14, 391-2-DS-Cav1-SC-IP-1", "T14 construct": "also called sc-v49", "assay": "ELISA, variant from culture supernatant on Ni-NTA plate [continued]", "method": "as §1"}, "[15]": {"molecular_target": "T15, 391-2-DS-Cav1-BZGJ9_gyc10", "T15 construct": "also called sc-v60", "assay": "ELISA, variant from culture supernatant on Ni-NTA plate [continued]", "method": "as §1"}, "[16]": {"molecular_target": "T16, 391-2-DS-Cav1-IP-7", "T16 construct": "also called sc-v46", "assay": "ELISA, variant from culture supernatant on Ni-NTA plate [continued]", "method": "as §1"}, "[17]": {"molecular_target": "T17, 391-2-DS-Cav1-BZGJ9_gyc6", "T17 construct": "also called sc-v55", "assay": "ELISA, variant from culture supernatant on Ni-NTA plate [continued]", "method": "as §1"}, "[18]": {"molecular_target": "T18, 391-2_DS-Cav1-tzsc6", "T18 construct": "also called sc-v58", "assay": "ELISA, variant from culture supernatant on Ni-NTA plate [continued]", "method": "as §1"}, "[19]": {"molecular_target": "T19, 391-2_DS-Cav1-tzsc9", "T19 construct": "also called sc-v52", "assay": "ELISA, variant from culture supernatant on Ni-NTA plate [continued]", "method": "as §1"}, "[20]": {"molecular_target": "T20, RB94_sc9-10 DS-CAV1 L373R", "T20 construct": "also called sc-v38", "assay": "ELISA, variant from culture supernatant on Ni-NTA plate [continued]", "method": "as §1"}, "[21]": {"molecular_target": "T21, 391-2-DS-Cav1-BZGJ9_gyc2", "T21 construct": "also called sc-v48", "assay": "ELISA, variant from culture supernatant on Ni-NTA plate [continued]", "method": "as §1"}, "[22]": {"molecular_target": "T22, 391-2-DS-Cav1- F-SC_11R", "T22 construct": "also called sc-v54", "assay": "ELISA, variant from culture supernatant on Ni-NTA plate [continued]", "method": "as §1"}, "[23]": {"molecular_target": "T23, KXds2", "T23 construct": "also called sc-v50", "assay": "ELISA, variant from culture supernatant on Ni-NTA plate [continued]", "method": "as §1"}, "[24]": {"molecular_target": "T24, 391-2-DS-Cav1-BZGJ9_gyc3", "T24 construct": "also called sc-v45", "assay": "ELISA, variant from culture supernatant on Ni-NTA plate [continued]", "method": "as §1"}, "[25]": {"molecular_target": "T25, 391-2-DS-Cav1-IP-2", "T25 construct": "also called sc-v40", "assay": "ELISA, variant from culture supernatant on Ni-NTA plate [continued]", "method": "as §1"}, "[26]": {"molecular_target": "T26, RB94 DS-CAV1 N70K S104F K117T", "T26 construct": "also called sc-v41", "assay": "ELISA, variant from culture supernatant on Ni-NTA plate [continued]", "method": "as §1"}, "[27]": {"molecular_target": "T27, 391-2_DS-Cav1-tzsc4", "T27 construct": "also called sc-v39", "assay": "ELISA, variant from culture supernatant on Ni-NTA plate [continued]", "method": "as §1"}, "[28]": {"molecular_target": "T28, 391-2_DS-Cav1-tzsc4", "T28 construct": "also called sc-v51", "assay": "ELISA, variant from culture supernatant on Ni-NTA plate [continued]", "method": "as §1"}, "[29]": {"molecular_target": "T29, 391-2-DS-Cav1-BZGJ9", "T29 construct": "also called sc-v47", "assay": "ELISA, variant from culture supernatant on Ni-NTA plate [continued]", "method": "as §1"}, "[30]": {"molecular_target": "T30, 391-2_DS-Cav1-tzsc2", "T30 construct": "also called sc-v57", "assay": "ELISA, variant from culture supernatant on Ni-NTA plate [continued]", "method": "as §1"}, "[31]": {"molecular_target": "T31, sc9-10_DS-CAV1_bRSV(RB94)_Fd_fp1_ig1", "T31 construct": "also called sc-v44", "assay": "ELISA, variant from culture supernatant on Ni-NTA plate [continued]", "method": "as §1"}, "[32]": {"molecular_target": "391-2wt-F_SC_11R", "assay": "ELISA, variant from culture supernatant on Ni-NTA plate", "method": "as §1"}}}
{"binder": "B1", "values": [{"measurement": "ELISA binding value", "setting": "[1]", "value": 0.371}, {"measurement": "ELISA binding value", "setting": "[2]", "value": 0.0592}, {"measurement": "ELISA binding value", "setting": "[3]", "value": 0.0919}, {"measurement": "ELISA binding value", "setting": "[4]", "value": 0.1}, {"measurement": "ELISA binding value", "setting": "[5]", "value": 0.29}, {"measurement": "ELISA binding value", "setting": "[6]", "value": 0.229}, {"measurement": "ELISA binding value", "setting": "[7]", "value": 0.0872}, {"measurement": "ELISA binding value", "setting": "[8]", "value": 0.154}, {"measurement": "ELISA binding value", "setting": "[9]", "value": 0.155}, {"measurement": "ELISA binding value", "setting": "[10]", "value": 0.0824}, {"measurement": "ELISA binding value", "setting": "[11]", "value": 0.0752}, {"measurement": "ELISA binding value", "setting": "[12]", "value": 0.105}, {"measurement": "ELISA binding value", "setting": "[13]", "value": 0.0901}, {"measurement": "ELISA binding value", "setting": "[14]", "value": 0.155}, {"measurement": "ELISA binding value", "setting": "[15]", "value": 0.0498}, {"measurement": "ELISA binding value", "setting": "[16]", "value": 0.0761}, {"measurement": "ELISA binding value", "setting": "[17]", "value": 0.0866}, {"measurement": "ELISA binding value", "setting": "[18]", "value": 0.0583}, {"measurement": "ELISA binding value", "setting": "[19]", "value": 0.1}, {"measurement": "ELISA binding value", "setting": "[20]", "value": 0.258}, {"measurement": "ELISA binding value", "setting": "[21]", "value": 0.12}, {"measurement": "ELISA binding value", "setting": "[22]", "value": 0.0668}, {"measurement": "ELISA binding value", "setting": "[23]", "value": 0.143}, {"measurement": "ELISA binding value", "setting": "[24]", "value": 0.123}, {"measurement": "ELISA binding value", "setting": "[25]", "value": 0.217}, {"measurement": "ELISA binding value", "setting": "[26]", "value": 0.201}, {"measurement": "ELISA binding value", "setting": "[27]", "value": 0.263}, {"measurement": "ELISA binding value", "setting": "[28]", "value": 0.096}, {"measurement": "ELISA binding value", "setting": "[29]", "value": 0.0926}, {"measurement": "ELISA binding value", "setting": "[30]", "value": 0.109}, {"measurement": "ELISA binding value", "setting": "[31]", "value": 0.0965}, {"measurement": "ELISA binding value", "setting": "[32]", "value": 0.887}]}
{"binder": "B2", "values": [{"measurement": "ELISA binding value", "setting": "[1]", "value": 0.182}, {"measurement": "ELISA binding value", "setting": "[2]", "value": 0.133}, {"measurement": "ELISA binding value", "setting": "[3]", "value": 0.136}, {"measurement": "ELISA binding value", "setting": "[4]", "value": 0.133}, {"measurement": "ELISA binding value", "setting": "[5]", "value": 0.274}, {"measurement": "ELISA binding value", "setting": "[6]", "value": 0.198}, {"measurement": "ELISA binding value", "setting": "[7]", "value": 0.144}, {"measurement": "ELISA binding value", "setting": "[8]", "value": 0.175}, {"measurement": "ELISA binding value", "setting": "[9]", "value": 0.206}, {"measurement": "ELISA binding value", "setting": "[10]", "value": 0.141}, {"measurement": "ELISA binding value", "setting": "[11]", "value": 0.132}, {"measurement": "ELISA binding value", "setting": "[12]", "value": 0.197}, {"measurement": "ELISA binding value", "setting": "[13]", "value": 0.138}, {"measurement": "ELISA binding value", "setting": "[14]", "value": 0.0985}, {"measurement": "ELISA binding value", "setting": "[15]", "value": 0.136}, {"measurement": "ELISA binding value", "setting": "[16]", "value": 0.201}, {"measurement": "ELISA binding value", "setting": "[17]", "value": 0.135}, {"measurement": "ELISA binding value", "setting": "[18]", "value": 0.138}, {"measurement": "ELISA binding value", "setting": "[19]", "value": 0.132}, {"measurement": "ELISA binding value", "setting": "[20]", "value": 0.27}, {"measurement": "ELISA binding value", "setting": "[21]", "value": 0.144}, {"measurement": "ELISA binding value", "setting": "[22]", "value": 0.161}, {"measurement": "ELISA binding value", "setting": "[23]", "value": 0.109}, {"measurement": "ELISA binding value", "setting": "[24]", "value": 0.164}, {"measurement": "ELISA binding value", "setting": "[25]", "value": 0.197}, {"measurement": "ELISA binding value", "setting": "[26]", "value": 0.17}, {"measurement": "ELISA binding value", "setting": "[27]", "value": 0.219}, {"measurement": "ELISA binding value", "setting": "[28]", "value": 0.138}, {"measurement": "ELISA binding value", "setting": "[29]", "value": 0.183}, {"measurement": "ELISA binding value", "setting": "[30]", "value": 0.0883}, {"measurement": "ELISA binding value", "setting": "[31]", "value": 0.191}, {"measurement": "ELISA binding value", "setting": "[32]", "value": 0.739}]}
